Experimental data published in patent publication US20130171174A1 (INDUSTRIAL TECHNOLOGY RESEARCH INSTITUTE, published 2013).

Biological target: T1, human epidermal growth factor receptor (EGFR) on A431 cells (human, UniProt P00533 25-1210)
T1 construct: whole, on cells; The target is presented on fixed A431 cells
Experiment: ELISA on fixed A431 cells, anti-human Fc-HRP detection, SigmaPlot fit
Description: A431 cells in a concentration of 4×10⁵ cell/ml were seeded in Corning CellBIND 96-well plate for 16-24 h before assay. After PBS wash, the A431 cells were fixed with BD CytoFix fixation buffer for 15-20 min at room temperature. After fixation and PBS wash procedure, the A431 cells were blocked with StartingBlock blocking buffer for 30 min at 37° C. Plates were washed three times with PBST wash buffer and incubated with the indicated concentrations of dAb-D2-hFc and VH-dAb-D2×4-Ig in 50 ul StartingBlock blocking buffer on ice for 1.5 h. Wells were washed three times with PBST wash buffer. After washing, the plate was incubated with HRP-conjugated anti-human Fc antibody diluted 1:10,000 in StartingBlock blocking buffer on ice for 1 hour. Plates were washed and incubated with TMB. Absorbance at 450 nm was read on a microplate reader.

B1: VH-dAb-D2×4-Ig tetrameric antibody (antibody, V domains shown)
V domain 1: QVQLLESGGGLVQPGGSLRLSCAASGYRFNSEAMGWVRQAPGKGLEWVSSINMRGGSTYYADSVKGRFTISRDNSKNTLYLQMNSLRAEDTAVYYCATVPRSMWWAGLTAKPIRYWGQGTLVTVSS
V domain 2: QVQLLESGGGLVQPGGSLRLSCAASGYRFNSEAMGWVRQAPGKGLEWVSSINMRGGSTYYADSVKGRFTISRDNSKNTLYLQMNSLRAEDTAVYYCATVPRSMWWAGLTAKPIRYWGQGTLVTVSS
notes: also called tetravalent antibody; tetravalent fusion protein; not shown: CH1, CH2 and CH3 of human IgG; CL of human IgG
For B1, the Kd was roughly 6 nM.
